Experimental data from US20080274905A1 (TRUSTEES OF COLUMBIA UNIVERSITY IN THE CITY OF NEW YORK, published 2008).

B1: Rdh54 (Rad homolog 54), yeast Snf2-related homologous recombination factor (enzyme, UniProt P38086 1-958, looked up)
chain: MAVISVKPRRREKILQEVKNSSVYQTVFDSGTTQMQIPKYENKPFKPPRRVGSNKYTQLKPTATAVTTAPISKAKVTVNLKRSISAGPTLNLAKKPNNLSSNENTRYFTIMYRKPTTKKHKTWSGDGYATLKASSDKLCFYNEAGKFLGSSMLPSDSDSLFETLFKAGSNEVQLDYELKENAEIRSAKEALSQNMGNPSPPTTSTTETVPSTKNDGGKYQMPLSQLFSLNTVKRFKSVTKQTNEHMTTVPKTSQNSKAKKYYPVFDVNKIDNPIVMNKNAAAEVDVIVDPLLGKFLRPHQREGVKFMYDCLMGLARPTIENPDIDCTTKSLVLENDSDISGCLLADDMGLGKTLMSITLIWTLIRQTPFASKVSCSQSGIPLTGLCKKILVVCPVTLIGNWKREFGKWLNLSRIGVLTLSSRNSPDMDKMAVRNFLKVQRTYQVLIIGYEKLLSVSEELEKNKHLIDMLVCDEGHRLKNGASKILNTLKSLDIRRKLLLTGTPIQNDLNEFFTIIDFINPGILGSFASFKRRFIIPITRARDTANRYNEELLEKGEERSKEMIEITKRFILRRTNAILEKYLPPKTDIILFCKPYSQQILAFKDILQGARLDFGQLTFSSSLGLITLLKKVCNSPGLVGSDPYYKSHIKDTQSQDSYSRSLNSGKLKVLMTLLEGIRKGTKEKVVVVSNYTQTLDIIENLMNMAGMSHCRLDGSIPAKQRDSIVTSFNRNPAIFGFLLSAKSGGVGLNLVGASRLILFDNDWNPSVDLQAMSRIHRDGQKKPCFIYRLVTTGCIDEKILQRQLMKNSLSQKFLGDSEMRNKESSNDDLFNKEDLKDLFSVHTDTKSNTHDLICSCDGLGEEIEYPETNQQQNTVELRKRSTTTWTSALDLQKKMNEAATNDDAKKSQYIRQCLVHYKHIDPARQDELFDEVITDSFTELKDSITFAFVKPGEICLREQ
notes: also called Tid1
B2: fluorescently tagged human Rad51 (A11C Rad51 labeled with Alexa Fluor 555-maleimide) (enzyme, UniProt Q06609 1-339, looked up)
chain: MAMQMQLEANCDTSVEEESFGPQPISRLEQSGINANDVKKLEEAGFHTVEAVAYAPKKELINIKGISEAKADKILAEAAKLVPMGFTTATEFHQRRSEIIQITTGSKELDKLLQGGIETGSITEMFGEFRTGKTQICHTLAVTCQLPIDRGGGEGKAMYIDTEGTFRPERLLAVAERYGLSGSDVLDNVAYARAFNTDHQTQLLYQASAMMVESRYALLIVDSATALYRTDYSGRGELSARQMHLARFLRMLLRLADEFGVAVVITNQVVAQVDGAAMFAADPKKPIGGNIIAHASTTRLYLRKGRGETRISKIYDSPSLPEAEAMFAINADGVGDAKD
modifications: Alexa Fluor 555-maleimide on Cys 11 (A11C)
notes: also called fluorescent Rad51; Alexa Fluor 555-Rad51

Experiments:
[1] = molecular target: the molecule itself; test: two-colour quantum dot labeling of Rdh54 complexes on DNA curtains, TIRFM colocalisation (self-association)
[2] = molecular target: the molecule itself; test: cryo-electron microscopy of fluorescent Rad51 (self-association into rings)
Description: The biochemically active form of Rad51 and related recombinases is an extended helical filament bound to DNA (P8, P33). Cyro-electron microscopy was used to determine whether the fluorescently tagged version of Rad51 formed structures consistent with the known forms of the wild-type protein. First, fluorescent Rad51 was mixed with double-stranded, linearized φX174 in the presence of ATP. The reaction mixes were then applied to a carbon-coated grid, flash frozen in liquid ethane, and visualized with cryo-EM (P9). […] In addition, the protein that was not bound to the DNA molecules was present as a ring-like structure, as previously reported (P16). Rad511 and several closely related proteins, are known to form ring-like structures under various reaction conditions and it is thought that these rings contain from 6-8 monomers of protein (P13-P15, P34, P35).

Protein	binding result [1]	binding result [2]
B1	binds	
B2		binds
